For the data set, the target named is recombinant aggrecan G1G2 (globular domain 1-globular domain 2 of human aggrecan with N-terminal FLAG tag and C-terminal His tag), P16112.
Chain of recombinant aggrecan G1G2 (globular domain 1-globular domain 2 of human aggrecan with N-terminal FLAG tag and C-terminal His tag), P16112 (P16112 20-675): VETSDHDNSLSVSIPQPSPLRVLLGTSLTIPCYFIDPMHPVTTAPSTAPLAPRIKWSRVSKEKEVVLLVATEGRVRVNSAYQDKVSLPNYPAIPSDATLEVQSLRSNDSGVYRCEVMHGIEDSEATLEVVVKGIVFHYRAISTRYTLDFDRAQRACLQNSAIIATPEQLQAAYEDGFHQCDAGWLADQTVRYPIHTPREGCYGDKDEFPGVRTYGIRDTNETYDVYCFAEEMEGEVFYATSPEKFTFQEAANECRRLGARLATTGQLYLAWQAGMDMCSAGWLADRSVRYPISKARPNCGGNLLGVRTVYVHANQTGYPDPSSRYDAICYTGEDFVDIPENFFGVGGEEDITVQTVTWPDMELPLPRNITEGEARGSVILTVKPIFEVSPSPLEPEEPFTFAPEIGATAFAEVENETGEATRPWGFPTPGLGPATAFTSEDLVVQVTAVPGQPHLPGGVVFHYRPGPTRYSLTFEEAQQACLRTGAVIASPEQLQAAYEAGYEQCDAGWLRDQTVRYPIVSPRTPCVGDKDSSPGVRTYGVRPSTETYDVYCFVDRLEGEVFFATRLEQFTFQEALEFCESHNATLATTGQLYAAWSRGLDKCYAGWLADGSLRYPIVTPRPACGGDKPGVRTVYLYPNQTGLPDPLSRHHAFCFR

B1: MDTS8 full-length protein (MDTS8Full) with FLAG tag added to the C-terminus, expressed from plasmid pCEPdE2-MDTS8Full-FLAG (protein)
chain: MECALLLACAFPAAGSGPPRGLAGLGRVAKALQLCCLCCASVAAALASDSSSGASGLNDDYVFVTPVEVDSAGSYISHDILHNGRKKRSAQNARSSLHYRFSAFGQELHLELKPSAILSSHFIVQVLGKDGASETQKPEVQQCFYQGFIRNDSSSSVAVSTCAGLSGLIRTRKNEFLISPLPQLLAQEHNYSSPAGHHPHVLYKRTAEEKIQRYRGYPGSGRNYPGYSPSHIPHASQSRETEYHHRRLQKQHFCGRRKKYAPKPPTEDTYLRFDEYGSSGRPRRSAGKSQKGLNVETLVVADKKMVEKHGKGNVTTYILTVMNMVSGLFKDGTIGSDINVVVVSLILLEQEPGGLLINHHADQSLNSFCQWQSALIGKNGKRHDHAILLTGFDICSWKNEPCDTLGFAPISGMCSKYRSCTINEDTGLGLAFTIAHESGHNFGMIHDGEGNPCRKAEGNIMSPTLTGNNGVFSWSSCSRQYLKKFLSTPQAGCLVDEPKQAGQYKYPDKLPGQIYDADTQCKWQFGAKAKLCSLGFVKDICKSLWCHRVGHRCETKFMPAAEGTVCGLSMWCRQGQCVKFGELGPRPIHGQWSAWSKWSECSRTCGGGVKFQERHCNNPKPQYGGLFCPGSSRIYQLCNINPCNENSLDFRAQQCAEYNSKPFRGWFYQWKPYTKVEEEDRCKLYCKAENFEFFFAMSGKVKDGTPCSPNKNDVCIDGVCELVGCDHELGSKAVSDACGVCKGDNSTCKFYKGLYLNQHKANEYYPVVIIPAGARSIEIQELQVSSSYLAVRSLSQKYYLTGGWSIDWPGEFPFAGTTFEYQRSFNRPERLYAPGPTNETLVFEILMQGKNPGIAWKYALPKVMNGTPPATKRPAYTWSIVQSECSVSCGGGYINVKAICLRDQNTQVNSSFCSAKTKPVTEPKICNAFSCPAYWMPGEWSTCSKACAGGQQSRKIQCVQKKPFQKEEAVLHSLCPVSTPTQVQACNSHACPPQWSLGPWSQCSKTCGRGVRKRELLCKGSAAETLPESQCTSLPRPELQEGCVLGRCPKNSRLQWVASSWSECSATCGLGVRKREMKCSEKGFQGKLITFPERRCRNIKKPNLDLEETCNRRACPAHPVYNMVAGWYSLPWQQCTVTCGGGVQTRSVHCVQQGRPSSSCLLHQKPPVLRACNTNFCPAPEKREDPSCVDFFNWCHLVPQHGVCNHKFYGKQCCKSCTRKIAAADYKDDDDK
B1: the “degradation product reactive with the anti-aggrecanase neoepitope antibody (western blotting after overnight reaction at 37 C)” value was “such degradation products were detected when the culture supernatant of the HEK293-EBNA cell transfected with the plasmid pCEPdE2-MDTS8Full-FLAG was reacted with the recombinant G1G2”.

These data come from patent US20030185828.
